From the supplement of paper PMC9112550, “Optimization of the antimicrobial peptide Bac7 by deep mutational scanning” (BMC Biology, 2022)

system: Escherichia coli TOP10; assay: shrunken log2 fold change of peptide-encoding DNA abundance (4.5 h post-induction vs induction); higher = less antimicrobial activity (less host growth inhibition); conditions: time post-induction: 4.5 h; library: site-saturation at positions 5, 18, 19, 20
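Also: peptides expressed intracellularly from a pBAD plasmid library in pooled LB shake-flask culture, induced with 0.3% L-arabinose, DNA abundance read by NGS, three biological replicates, DESeq2 with apeglm shrinkage.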

Sequence | shrunken log2 fold change
RRIRVRPPRLPRPRPRPEPMPRP | -0.0177
RRIRPRPPRLPRPRPRPIQAPRP | 0.144
RRIRARPPRLPRPRPRPHCCPRP | 0.134
RRIRDRPPRLPRPRPRPHIHPRP | -0.342
RRIRHRPPRLPRPRPRPPNQPRP | -0.0151
RRIRQRPPRLPRPRPRPGASPRP | 0.326
RRIRRRPPRLPRPRPRPDNKPRP | -0.233
RRIRQRPPRLPRPRPRPCGCPRP | 0.164
RRIRLRPPRLPRPRPRPHAQPRP | 0.133
RRIRNRPPRLPRPRPRPKEPPRP | 0.0169
RRIRFRPPRLPRPRPRPVGEPRP | 0.29
RRIRTRPPRLPRPRPRPQNFPRP | -0.18
RRIRMRPPRLPRPRPRPDLLPRP | 2.73
RRIRHRPPRLPRPRPRPISQPRP | -0.0145
RRIRRRPPRLPRPRPRPYYRPRP | -0.186
RRIRERPPRLPRPRPRPIEDPRP | -0.199
RRIRFRPPRLPRPRPRPFRLPRP | -0.197
RRIRVRPPRLPRPRPRPIMIPRP | -1.08
RRIRERPPRLPRPRPRPFWMPRP | -0.262
RRIRIRPPRLPRPRPRPWYKPRP | -0.689
RRIRRRPPRLPRPRPRPEYWPRP | 0.0322
RRIRHRPPRLPRPRPRPTANPRP | 0.0557
RRIRNRPPRLPRPRPRPQPLPRP | -0.102
RRIRRRPPRLPRPRPRPMCGPRP | -0.0233
RRIRVRPPRLPRPRPRPFDDPRP | -0.175

Sequence | shrunken log2 fold change
RRIRHRPPRLPRPRPRPDQWPRP | -0.108
RRIRARPPRLPRPRPRPIRFPRP | 0.247
RRIRVRPPRLPRPRPRPWEWPRP | 0.0039
RRIRMRPPRLPRPRPRPDSCPRP | -0.00101
RRIRVRPPRLPRPRPRPYVTPRP | 0.0974
RRIRYRPPRLPRPRPRPGACPRP | -0.497
RRIRIRPPRLPRPRPRPMIDPRP | -1.15
RRIRGRPPRLPRPRPRPACDPRP | 0.964
RRIRQRPPRLPRPRPRPGVNPRP | -0.343
RRIRLRPPRLPRPRPRPFFKPRP | -0.169
RRIRRRPPRLPRPRPRPDPSPRP | 0.213
RRIRDRPPRLPRPRPRPALRPRP | 0.0869
RRIRWRPPRLPRPRPRPGTYPRP | -0.127
RRIRTRPPRLPRPRPRPLPSPRP | -0.0373
RRIRRRPPRLPRPRPRPINPPRP | 0.00585
RRIRIRPPRLPRPRPRPYVHPRP | -0.189
RRIRTRPPRLPRPRPRPFNTPRP | -0.0686
RRIRWRPPRLPRPRPRPYHCPRP | -0.276
RRIRFRPPRLPRPRPRPPDYPRP | -0.026
RRIRQRPPRLPRPRPRPTWHPRP | 0.0897
RRIRFRPPRLPRPRPRPFGTPRP | -0.587
RRIRKRPPRLPRPRPRPIDVPRP | 0.191
RRIRSRPPRLPRPRPRPKVLPRP | 0.248
RRIRRRPPRLPRPRPRPMRGPRP | 1.38
RRIRARPPRLPRPRPRPEAYPRP | 0.114

Sequence | shrunken log2 fold change
RRIRPRPPRLPRPRPRPRSLPRP | 0.14
RRIRCRPPRLPRPRPRPFCDPRP | -0.501
RRIRMRPPRLPRPRPRPIPRPRP | 0.634
RRIRNRPPRLPRPRPRPIQSPRP | -0.216
RRIRPRPPRLPRPRPRPIVGPRP | -0.00131
RRIRSRPPRLPRPRPRPQKDPRP | -0.323
RRIRQRPPRLPRPRPRPLFAPRP | 0.013
RRIRERPPRLPRPRPRPGIAPRP | -0.183
RRIRVRPPRLPRPRPRPVQAPRP | -0.0106
RRIRDRPPRLPRPRPRPDVIPRP | 0.00273
RRIRGRPPRLPRPRPRPAQRPRP | 0.858
RRIRWRPPRLPRPRPRPFFIPRP | -0.309
RRIRQRPPRLPRPRPRPSGSPRP | -0.0833
RRIRVRPPRLPRPRPRPKDVPRP | 0.00902
RRIRERPPRLPRPRPRPSMVPRP | -0.86
RRIRMRPPRLPRPRPRPWFAPRP | 0.18
RRIRYRPPRLPRPRPRPSSFPRP | -0.0941
RRIRKRPPRLPRPRPRPIQFPRP | 0.0779
RRIRTRPPRLPRPRPRPPYYPRP | -0.535
RRIRRRPPRLPRPRPRPYFMPRP | -0.353
RRIRYRPPRLPRPRPRPMAIPRP | -0.0433
RRIRWRPPRLPRPRPRPKDIPRP | -0.0886
RRIRFRPPRLPRPRPRPVYCPRP | -0.408
RRIRSRPPRLPRPRPRPYYVPRP | -0.274
RRIRRRPPRLPRPRPRPANLPRP | 0.0328

Sequence | shrunken log2 fold change
RRIRYRPPRLPRPRPRPKWYPRP | -0.884
RRIRERPPRLPRPRPRPTLGPRP | 0.0905
RRIRIRPPRLPRPRPRPQVFPRP | -0.0107
RRIRPRPPRLPRPRPRPLMNPRP | -0.47
RRIRNRPPRLPRPRPRPVYKPRP | -0.453
RRIRVRPPRLPRPRPRPTCIPRP | -0.372
RRIRCRPPRLPRPRPRPRSCPRP | -0.159
RRIRMRPPRLPRPRPRPAVPPRP | 0.328
RRIRFRPPRLPRPRPRPEFKPRP | -0.0568
RRIRARPPRLPRPRPRPKHDPRP | 0.263
RRIRQRPPRLPRPRPRPINLPRP | -0.123
RRIRFRPPRLPRPRPRPWWEPRP | 0.0381
RRIRHRPPRLPRPRPRPGEVPRP | 0.0396
RRIRERPPRLPRPRPRPQFMPRP | 0.0848
RRIRGRPPRLPRPRPRPYMVPRP | -0.296
RRIRIRPPRLPRPRPRPFTDPRP | 0.0112
RRIRCRPPRLPRPRPRPNQLPRP | -0.345
RRIRGRPPRLPRPRPRPTEPPRP | 0.716
RRIRARPPRLPRPRPRPSKQPRP | 0.0216
RRIRRRPPRLPRPRPRPFMAPRP | 0.113
RRIRIRPPRLPRPRPRPQRKPRP | -0.104
RRIRPRPPRLPRPRPRPHRRPRP | -0.0778
RRIRLRPPRLPRPRPRPTNQPRP | -0.327
RRIRWRPPRLPRPRPRPSAGPRP | 0.231
RRIRFRPPRLPRPRPRPDMLPRP | -0.125

Sequence | shrunken log2 fold change
RRIRARPPRLPRPRPRPVRLPRP | 0.371
RRIRKRPPRLPRPRPRPPPVPRP | 0.751
RRIRDRPPRLPRPRPRPAFGPRP | 0.238
RRIRLRPPRLPRPRPRPKQLPRP | -0.0685
RRIRNRPPRLPRPRPRPYTMPRP | -0.38
RRIRIRPPRLPRPRPRPNPKPRP | 0.0309
RRIRCRPPRLPRPRPRPMAHPRP | -0.00655
RRIRRRPPRLPRPRPRPQITPRP | 0.0752
RRIRNRPPRLPRPRPRPHCMPRP | -0.251
RRIRQRPPRLPRPRPRPNRHPRP | 0.115
RRIRMRPPRLPRPRPRPMYHPRP | -0.0178
RRIRRRPPRLPRPRPRPHTGPRP | -0.105
RRIRIRPPRLPRPRPRPNSQPRP | -0.523
RRIRCRPPRLPRPRPRPYGRPRP | -0.114
RRIRHRPPRLPRPRPRPNGLPRP | -0.57
RRIRIRPPRLPRPRPRPEYPPRP | -1.05
RRIRIRPPRLPRPRPRPQPPPRP | -0.0122
RRIRKRPPRLPRPRPRPREDPRP | 0.346
RRIRQRPPRLPRPRPRPCPFPRP | -0.505
RRIRQRPPRLPRPRPRPPWAPRP | 0.577
RRIRERPPRLPRPRPRPIMKPRP | -0.376
RRIRRRPPRLPRPRPRPVSIPRP | -0.0599
RRIRKRPPRLPRPRPRPFRFPRP | 0.125
RRIRWRPPRLPRPRPRPNMYPRP | -0.436
RRIRARPPRLPRPRPRPQEYPRP | 0.0643

Sequence | shrunken log2 fold change
RRIRFRPPRLPRPRPRPEPRPRP | 0.81
RRIRHRPPRLPRPRPRPIEQPRP | -0.0277
RRIRSRPPRLPRPRPRPRINPRP | -0.301
RRIRERPPRLPRPRPRPVCWPRP | 0.337
RRIRFRPPRLPRPRPRPYGNPRP | -0.527
RRIRKRPPRLPRPRPRPCFYPRP | -0.115
RRIRARPPRLPRPRPRPFESPRP | 0.0991
RRIRYRPPRLPRPRPRPAMNPRP | -0.796
RRIRNRPPRLPRPRPRPNRGPRP | 0.0523
RRIRCRPPRLPRPRPRPDGHPRP | -0.00753
RRIRVRPPRLPRPRPRPAHTPRP | 0.109
RRIRNRPPRLPRPRPRPVIIPRP | -0.0963
RRIRWRPPRLPRPRPRPFVYPRP | -0.428
RRIRHRPPRLPRPRPRPVHLPRP | -0.0199
RRIRTRPPRLPRPRPRPPAWPRP | 0.663
RRIRHRPPRLPRPRPRPVIRPRP | 0.00766
RRIRCRPPRLPRPRPRPYNRPRP | -0.0425
RRIRYRPPRLPRPRPRPPWMPRP | -0.0946
RRIRWRPPRLPRPRPRPNAIPRP | -0.123
RRIRTRPPRLPRPRPRPKGLPRP | -0.117
RRIRFRPPRLPRPRPRPEAGPRP | 0.806
RRIRHRPPRLPRPRPRPGGLPRP | 0.117
RRIRQRPPRLPRPRPRPYSMPRP | -0.031
RRIRHRPPRLPRPRPRPQSKPRP | -0.342
RRIRCRPPRLPRPRPRPMNVPRP | -0.00117
